Reference: patent publication US20240317834A1, “COMPOSITIONS AND METHODS FOR NEUROLOGICAL DISEASES” (CODA BIOTHERAPEUTICS, INC., priority 2020, published 2024)

Tested on: Lenti-X 293T cells
Test: YFP fluorescence quenching anion reporter plate reader assay of engineered receptors stimulated with acetylcholine or a non-native ligand
Assay type: cell-based
Conditions: for percent quench of YFP fluorescence, 30 nM TC-6683: TC-6683 30 nM; for percent quench of YFP fluorescence, 300 nM TC-6683: TC-6683 300 nM; for percent quench of YFP fluorescence, 3 uM TC-6683: TC-6683 3 uM; for percent quench of YFP fluorescence, 30 uM TC-6683: TC-6683 30 uM; for percent quench of YFP fluorescence, 100 uM TC-6683: TC-6683 100 uM; for percent quench of YFP fluorescence, 10 uM ach: acetylcholine 10 uM; for percent quench of YFP fluorescence, 100 uM ach: acetylcholine 100 uM; for percent quench of YFP fluorescence, 1 mM ach: acetylcholine 1 mM; for percent quench of YFP fluorescence, 3 mM ach: acetylcholine 3 mM
Summary of the method: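 Lenti-X 293T cells carrying a YFP anion reporter were transiently transfected with channel DNA and assayed the next day in HEPES-buffered ECS at pH 7.2. Ligand (acetylcholine or non-native ligand) was added in NaI-substituted ECS. Percent quench was the mean of the last 10 s relative to the 15 s pre-addition baseline.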

B1: CODA340: engineered chimeric LGIC receptor, L131E in SEQ ID NO: 33 (protein)
chain: MRCSPGGVWLALAASLLHVSLQGEFQRKLYKELVKNYNPLERPVANDSQPLTVYFSLSLLQIMDVDEKNQVLTTNIWLQMSWTDHYLQWNVSEYPGVKTVRFPDGQIWKPDILLYNSADERFDATFHTNVEVNSSGHCQYLPPGIFKSSCPMDLKNFPMDVQTCKLKFGSWSYGGWSLDLQMQEADISGYIPNGEWDLVGIPGKRSERFYECCKEPYPDVTFTVTMRRRMGYYLIQMYIPSLLIVILSWISFWINMDAAPARVGLGITTVLTMTTQSSGSRASLPKVSYVKAIDIWMAVCLLFVFSALLEYAAVNFVSRQHKELLRFRRKRRHHKSPMLNLFQEDEAGEGRFNFSAYGMGPACLQAKDGISVKGANNSNTTNPPPAPSKSPEEMRKLFIQRAKKIDKISRIGFPMAFLIFNMFYWIIYKIVRREDVHNQ
modifications: synthetic sequence of chimeric LGIC
For B1, the “YFP fluorescence quenching using CNL001” value (1 nM CNL001, first column) was 76.413%, the “YFP fluorescence quenching using CNL001” value (1 nM CNL001, second column) was 77.144% and the “YFP fluorescence quenching using TC-5619/Bradanicline” value (3 nM brd) was 68.57%. The “YFP fluorescence quenching using Varenicline” value (3 nM var, first column) was −4.061, the “YFP fluorescence quenching using Varenicline” value (3 nM var, second column) was −0.568 and the “YFP fluorescence quenching using CNL001” value (10 nM CNL001, first column) was 78.258%. The “YFP fluorescence quenching using CNL001” value (10 nM CNL001, second column) was 78.763%, the “YFP fluorescence quenching using TC-5619/Bradanicline” value (30 nM brd) was 76.85% and the “YFP fluorescence quenching using Facinicline” value (30 nM fac) was 82.51. The “YFP fluorescence quenching using Varenicline” value (30 nM var, first column) was 62.964, the “YFP fluorescence quenching using Varenicline” value (30 nM var, second column) was 63.631 and the “YFP fluorescence quenching using CNL001” value (50 nM CNL001, first column) was 79.757%. The “YFP fluorescence quenching using CNL001” value (50 nM CNL001, second column) was 79.327%, the “YFP fluorescence quenching using ABT-126” value (50 nM abt) was 2.2% and the “YFP fluorescence quenching using CNL001” value (100 nM CNL001, first column) was 79.011%. For the same molecule, the “YFP fluorescence quenching using CNL001” value (100 nM CNL001, second column) was 79.948%, the “YFP fluorescence quenching using CNL002” value (100 nM CNL002) was 49.97% and the “YFP fluorescence quenching using ABT-126” value (100 nM abt) was 25.39%. The “YFP fluorescence quenching using AZD-0328” value (100 nM azd0328) was 82.48%, the “YFP fluorescence quenching using Facinicline” value (100 nM fac) was 83.6 and the “YFP fluorescence quenching using ABT-126” value (300 nM abt) was 36.48%. The “YFP fluorescence quenching using AZD-0328” value (300 nM azd0328) was 82.04%, the “YFP fluorescence quenching using TC-5619/Bradanicline” value (300 nM brd) was 78.49% and the “YFP fluorescence quenching using Facinicline” value (300 nM fac) was 82.92. The “YFP fluorescence quenching using Varenicline” value (300 nM var, first column) was 74.912, the “YFP fluorescence quenching using Varenicline” value (300 nM var, second column) was 75.084 and the “YFP fluorescence quenching using Varenicline” value (500 nM var, first column) was 76.346. For the same molecule, the “YFP fluorescence quenching using Varenicline” value (500 nM var, second column) was 75.876, the “YFP fluorescence quenching using CNL001” value (1 uM CNL001, first column) was 79.855% and the “YFP fluorescence quenching using CNL001” value (1 uM CNL001, second column) was 80.618%. The “YFP fluorescence quenching using CNL002” value (1 uM CNL002) was 67.8%, the “YFP fluorescence quenching using ABT-126” value (1 uM abt) was 50.76% and the “YFP fluorescence quenching using TC-6987” value (1 uM tc6987) was 80.13. The “YFP fluorescence quenching using Varenicline” value (1 uM var, first column) was 75.805, the “YFP fluorescence quenching using Varenicline” value (1 uM var, second column) was 74.856 and the “YFP fluorescence quenching using TC-6987” value (10 uM tc6987) was 81.29. The “YFP fluorescence quenching using CNL002” value (30 uM CNL002) was 64.58%, the “YFP fluorescence quenching using AZD-0328” value (30 uM azd0328) was 81.8% and the “YFP fluorescence quenching using Facinicline” value (30 uM fac) was 82.68. The “YFP fluorescence quenching using TC-6987” value (500 uM tc6987) was 79.6, the “percent quench of YFP fluorescence, 30 nM TC-6683” value was 30.14% and the “percent quench of YFP fluorescence, 300 nM TC-6683” value was 33.02%. The “percent quench of YFP fluorescence, 3 uM TC-6683” value was 41.68%, the “percent quench of YFP fluorescence, 30 uM TC-6683” value was 35.75% and the “percent quench of YFP fluorescence, 100 uM TC-6683” value was 24.32%. The “percent quench of YFP fluorescence, 10 uM ach” value was 15.29%, the “percent quench of YFP fluorescence, 30 uM ach” value (acetylcholine 30 uM) was 66.56% and the “percent quench of YFP fluorescence, 100 uM ach” value was 81.31%. The “percent quench of YFP fluorescence, 1 mM ach” value was 80.77% and the “percent quench of YFP fluorescence, 3 mM ach” value was 77.31%.

B2: CODA342: engineered chimeric LGIC receptor, L131R in SEQ ID NO: 33 (protein)
chain: MRCSPGGVWLALAASLLHVSLQGEFQRKLYKELVKNYNPLERPVANDSQPLTVYFSLSLLQIMDVDEKNQVLTTNIWLQMSWTDHYLQWNVSEYPGVKTVRFPDGQIWKPDILLYNSADERFDATFHTNVRVNSSGHCQYLPPGIFKSSCPMDLKNFPMDVQTCKLKFGSWSYGGWSLDLQMQEADISGYIPNGEWDLVGIPGKRSERFYECCKEPYPDVTFTVTMRRRMGYYLIQMYIPSLLIVILSWISFWINMDAAPARVGLGITTVLTMTTQSSGSRASLPKVSYVKAIDIWMAVCLLFVFSALLEYAAVNFVSRQHKELLRFRRKRRHHKSPMLNLFQEDEAGEGRFNFSAYGMGPACLQAKDGISVKGANNSNTTNPPPAPSKSPEEMRKLFIQRAKKIDKISRIGFPMAFLIFNMFYWIIYKIVRREDVHNQ
modifications: synthetic sequence of chimeric LGIC
B2 was tested, and the “YFP fluorescence quenching using CNL001” value (1 nM CNL001, first column) was 23.532%, the “YFP fluorescence quenching using CNL001” value (1 nM CNL001, second column) was 26.054% and the “YFP fluorescence quenching using TC-5619/Bradanicline” value (1 nM brd) was −7.83%. For the same molecule, the “YFP fluorescence quenching using TC-5619/Bradanicline” value (3 nM brd) was −12.89%, the “YFP fluorescence quenching using Varenicline” value (3 nM var, first column) was 0.271 and the “YFP fluorescence quenching using Varenicline” value (3 nM var, second column) was −3.613. The “YFP fluorescence quenching using CNL001” value (10 nM CNL001, first column) was 43.69%, the “YFP fluorescence quenching using CNL001” value (10 nM CNL001, second column) was 54.016% and the “YFP fluorescence quenching using TC-5619/Bradanicline” value (10 nM brd) was −10.47%. The “YFP fluorescence quenching using TC-5619/Bradanicline” value (30 nM brd) was 59.48%, the “YFP fluorescence quenching using Facinicline” value (30 nM fac) was −6.2 and the “YFP fluorescence quenching using Varenicline” value (30 nM var, first column) was −4.935. The “YFP fluorescence quenching using Varenicline” value (30 nM var, second column) was −4.363, the “YFP fluorescence quenching using CNL001” value (50 nM CNL001, first column) was 59.955% and the “YFP fluorescence quenching using CNL001” value (50 nM CNL001, second column) was 56.091%. For the same molecule, the “YFP fluorescence quenching using ABT-126” value (50 nM abt) was −18.14%, the “YFP fluorescence quenching using CNL001” value (100 nM CNL001, first column) was 64.536% and the “YFP fluorescence quenching using CNL001” value (100 nM CNL001, second column) was 58.987%. For the same molecule, the “YFP fluorescence quenching using CNL002” value (100 nM CNL002) was −17.2%, the “YFP fluorescence quenching using ABT-126” value (100 nM abt) was −18.14% and the “YFP fluorescence quenching using AZD-0328” value (100 nM azd0328) was 1.79%. For the same molecule, the “YFP fluorescence quenching using TC-5619/Bradanicline” value (100 nM brd) was 70.19%, the “YFP fluorescence quenching using ABT-126” value (300 nM abt) was −0.81% and the “YFP fluorescence quenching using AZD-0328” value (300 nM azd0328) was 66.58%. For the same molecule, the “YFP fluorescence quenching using TC-5619/Bradanicline” value (300 nM brd) was 75.11%, the “YFP fluorescence quenching using Facinicline” value (300 nM fac) was 76.75 and the “YFP fluorescence quenching using Varenicline” value (300 nM var, first column) was 0.282. The “YFP fluorescence quenching using Varenicline” value (300 nM var, second column) was 2.32, the “YFP fluorescence quenching using ABT-126” value (500 nM abt) was 23.29% and the “YFP fluorescence quenching using Varenicline” value (500 nM var, first column) was 23.777. For the same molecule, the “YFP fluorescence quenching using Varenicline” value (500 nM var, second column) was 18.376, the “YFP fluorescence quenching using CNL001” value (1 uM CNL001, first column) was 65.987% and the “YFP fluorescence quenching using CNL001” value (1 uM CNL001, second column) was 64.312%. The “YFP fluorescence quenching using CNL002” value (1 uM CNL002) was 8.12%, the “YFP fluorescence quenching using ABT-126” value (1 uM abt) was 45.76% and the “YFP fluorescence quenching using TC-5619/Bradanicline” value (1 uM brd) was 77.42%. The “YFP fluorescence quenching using TC-6987” value (1 uM tc6987) was 2.51, the “YFP fluorescence quenching using Varenicline” value (1 uM var, first column) was 66.17 and the “YFP fluorescence quenching using Varenicline” value (1 uM var, second column) was 66.088. The “YFP fluorescence quenching using ABT-126” value (3 uM abt) was 53.03%, the “YFP fluorescence quenching using ABT-126” value (10 uM abt) was 64.08% and the “YFP fluorescence quenching using Facinicline” value (10 uM fac) was 82.16. The “YFP fluorescence quenching using TC-6987” value (10 uM tc6987) was 46.22, the “YFP fluorescence quenching using CNL002” value (30 uM CNL002) was 57.24% and the “YFP fluorescence quenching using ABT-126” value (30 uM abt) was 71.98%. For the same molecule, the “YFP fluorescence quenching using AZD-0328” value (30 uM azd0328) was 80.55%, the “YFP fluorescence quenching using Facinicline” value (30 uM fac) was 81.71 and the “YFP fluorescence quenching using ABT-126” value (50 uM abt) was 73.98%. The “YFP fluorescence quenching using ABT-126” value (100 uM abt) was 73.51%, the “YFP fluorescence quenching using TC-6987” value (500 uM tc6987) was 68.33 and the “percent quench of YFP fluorescence, 30 nM TC-6683” value was −16.26%. For the same molecule, the “percent quench of YFP fluorescence, 300 nM TC-6683” value was −22.45%, the “percent quench of YFP fluorescence, 3 uM TC-6683” value was −13.48% and the “percent quench of YFP fluorescence, 30 uM TC-6683” value was −12.68%. The “percent quench of YFP fluorescence, 100 uM TC-6683” value was −10.33%, the “percent quench of YFP fluorescence, 10 uM ach” value was −2.57% and the “percent quench of YFP fluorescence, 100 uM ach” value was −3.18%. The “percent quench of YFP fluorescence, 1 mM ach” value was 78.98% and the “percent quench of YFP fluorescence, 3 mM ach” value was 75.75%.
